Patent US20220306695A1, “COMPSTATIN ANALOGUES AND THEIR MEDICAL USES” (priority 2019, published 2022)
Positions of bridges follow the written chain, without caps; N, C: chain ends.

Tests used:
Human C3 [1] = molecular target: T1, Human C3 (human, UniProt P01024 23-1663); assay: cell-based or functional assay
Human C3 [2] = molecular target: T1, Human C3; assay: cell-based or functional assay; remark: listed apart in the source
Human C3 [3] = molecular target: T1, Human C3; assay: cell-based or functional assay; remark: listed apart in the source
Human C3 [4] = molecular target: T1, Human C3; assay: SPR, C3 immobilised
Protocol: Surface plasmon resonance (SPR) was used to characterize peptides with respect to their binding affinity (Kd) for C3. Human C3 (Complement tech cat #A1 13c) was immobilised on individual flow cells of CM5 sensor chips (GE Healthcare) using standard amine coupling to a density of approximately 3000 resonance units (RU) in a buffer consisting of 10 mM phosphate pH 7.4, 150 mM NaCl, 0.05% Tween20.
For interaction experiments a multi-cycle experiment approach was used and performed using either a Biacore™ T200 or Biacore™ X100 instrument (GE Healthcare) at 25° C. Peptides were injected in increasing concentration series (5-8 different concentrations) for 60-120 s at a flow rate of 30 μL/min in a buffer consisting of 10 mM Tris buffer at pH 7.4, with 150 mM NaCl and 0.05% Tween20. This was followed by a dissociation period for up to 10 min. The C3 surface was regenerated between runs by a 45 s injection of 3 M MgCl₂.
Sensorgrams were double-referenced (reference surface, blanks) prior to analysis of the kinetic profiles by globally fitting data to a 1:1 Langmuir binding model to obtain association and dissociation rates for calculation of the equilibrium dissociation constant Kd. Each peptide was tested at in at least 2 independent experiments.

T1 sequence (P01024 23-1663 limits assumed): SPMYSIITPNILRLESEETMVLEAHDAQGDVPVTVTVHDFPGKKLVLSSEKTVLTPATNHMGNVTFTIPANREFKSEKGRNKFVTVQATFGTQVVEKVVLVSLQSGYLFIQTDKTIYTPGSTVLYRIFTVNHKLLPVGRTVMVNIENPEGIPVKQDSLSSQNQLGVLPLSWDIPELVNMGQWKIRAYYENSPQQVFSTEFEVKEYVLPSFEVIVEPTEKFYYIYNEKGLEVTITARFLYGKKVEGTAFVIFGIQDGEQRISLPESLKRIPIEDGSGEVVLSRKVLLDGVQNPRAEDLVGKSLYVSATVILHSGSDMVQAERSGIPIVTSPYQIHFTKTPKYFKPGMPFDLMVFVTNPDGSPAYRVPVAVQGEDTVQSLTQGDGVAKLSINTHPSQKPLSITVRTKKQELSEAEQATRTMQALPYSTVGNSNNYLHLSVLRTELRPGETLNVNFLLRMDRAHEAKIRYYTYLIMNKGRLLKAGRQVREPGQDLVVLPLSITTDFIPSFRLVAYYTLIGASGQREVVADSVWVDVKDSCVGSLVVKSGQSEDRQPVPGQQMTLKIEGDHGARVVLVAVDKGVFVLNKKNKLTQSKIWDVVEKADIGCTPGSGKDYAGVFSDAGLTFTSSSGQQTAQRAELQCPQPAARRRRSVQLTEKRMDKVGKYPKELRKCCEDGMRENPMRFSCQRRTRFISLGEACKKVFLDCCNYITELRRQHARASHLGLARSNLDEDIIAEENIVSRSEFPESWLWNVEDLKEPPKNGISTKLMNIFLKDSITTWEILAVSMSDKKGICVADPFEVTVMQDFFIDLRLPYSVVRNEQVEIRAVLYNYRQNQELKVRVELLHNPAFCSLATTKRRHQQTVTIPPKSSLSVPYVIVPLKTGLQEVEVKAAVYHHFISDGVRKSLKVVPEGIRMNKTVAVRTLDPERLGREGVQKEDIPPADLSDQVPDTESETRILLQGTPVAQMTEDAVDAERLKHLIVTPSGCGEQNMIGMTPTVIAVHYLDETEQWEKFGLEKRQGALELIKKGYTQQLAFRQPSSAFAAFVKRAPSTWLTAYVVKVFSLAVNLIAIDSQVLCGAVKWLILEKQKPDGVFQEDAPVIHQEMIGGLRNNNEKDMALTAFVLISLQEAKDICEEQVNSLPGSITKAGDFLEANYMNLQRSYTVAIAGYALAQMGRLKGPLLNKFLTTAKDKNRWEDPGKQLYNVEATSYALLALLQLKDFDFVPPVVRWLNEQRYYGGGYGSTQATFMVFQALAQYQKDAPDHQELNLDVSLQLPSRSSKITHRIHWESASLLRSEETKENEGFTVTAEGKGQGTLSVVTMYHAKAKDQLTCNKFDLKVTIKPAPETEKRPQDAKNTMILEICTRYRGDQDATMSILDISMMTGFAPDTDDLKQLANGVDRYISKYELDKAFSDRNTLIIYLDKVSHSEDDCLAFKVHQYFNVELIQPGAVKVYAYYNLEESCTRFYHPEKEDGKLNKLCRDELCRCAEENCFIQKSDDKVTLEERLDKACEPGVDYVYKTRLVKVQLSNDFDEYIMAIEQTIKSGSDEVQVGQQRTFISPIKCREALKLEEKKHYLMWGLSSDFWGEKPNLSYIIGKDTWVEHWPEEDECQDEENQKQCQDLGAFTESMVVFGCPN

Kd (Human C3 [4]) | Binder | IC50[nM], inhibition of hemolysis (Human C3 [1]) | CP hemolysis IC50 (Human C3 [2]) | IC50, CP hemolysis (Human C3 [3])
– | Ac-ICIWQDWGEHRCT-NH2 (disulfide 2-12; SMILES CC[C@H](C)[C@H](NC(C)=O)C(=O)N[C@H]1CSSC[C@@H](C(=O)N[C@H](C(N)=O)[C@@H](C)O)NC(=O)[C@H](CCCNC(=N)N)NC(=O)[C@H](Cc2c[nH]cn2)NC(=O)[C@H](CCC(=O)O)NC(=O)CNC(=O)[C@H](Cc2c[nH]c3ccccc23)NC(=O)[C@H](CC(=O)O)NC(=O)[C@H](CCC(N)=O)NC(=O)[C@H](Cc2c[nH]c3ccccc23)NC(=O)[C@H]([C@@H](C)CC)NC1=O) [Compound 2] | < 100 nM | 94 nM | < 100 nM
160 nM | Ac-ICVWQDWGEHRCS-NH2 (disulfide 2-12; SMILES CC[C@H](C)[C@H](NC(C)=O)C(=O)N[C@H]1CSSC[C@@H](C(=O)N[C@@H](CO)C(N)=O)NC(=O)[C@H](CCCNC(=N)N)NC(=O)[C@H](Cc2c[nH]cn2)NC(=O)[C@H](CCC(=O)O)NC(=O)CNC(=O)[C@H](Cc2c[nH]c3ccccc23)NC(=O)[C@H](CC(=O)O)NC(=O)[C@H](CCC(N)=O)NC(=O)[C@H](Cc2c[nH]c3ccccc23)NC(=O)[C@H](C(C)C)NC1=O) [Compound G] | – | 180 nM | –
130 nM | Ac-ICVWQDWGEHRCT-NH2 (disulfide 2-12; SMILES CC[C@H](C)[C@H](NC(C)=O)C(=O)N[C@H]1CSSC[C@@H](C(=O)N[C@H](C(N)=O)[C@@H](C)O)NC(=O)[C@H](CCCNC(=N)N)NC(=O)[C@H](Cc2c[nH]cn2)NC(=O)[C@H](CCC(=O)O)NC(=O)CNC(=O)[C@H](Cc2c[nH]c3ccccc23)NC(=O)[C@H](CC(=O)O)NC(=O)[C@H](CCC(N)=O)NC(=O)[C@H](Cc2c[nH]c3ccccc23)NC(=O)[C@H](C(C)C)NC1=O) [Compound A] | – | 350 nM | 350 nM
230 nM | Ac-ICVWQDWGEHRCTGAES-NH2 (disulfide 2-12; SMILES CC[C@H](C)[C@H](NC(C)=O)C(=O)N[C@H]1CSSC[C@@H](C(=O)N[C@H](C(=O)NCC(=O)N[C@@H](C)C(=O)N[C@@H](CCC(=O)O)C(=O)N[C@@H](CO)C(N)=O)[C@@H](C)O)NC(=O)[C@H](CCCNC(=N)N)NC(=O)[C@H](Cc2c[nH]cn2)NC(=O)[C@H](CCC(=O)O)NC(=O)CNC(=O)[C@H](Cc2c[nH]c3ccccc23)NC(=O)[C@H](CC(=O)O)NC(=O)[C@H](CCC(N)=O)NC(=O)[C@H](Cc2c[nH]c3ccccc23)NC(=O)[C@H](C(C)C)NC1=O) [Compound D] | – | 210 nM | –
